Test results published in the supplement of paper PMC10126150.
± gives the standard deviation of the averaged measurements.

system: ATP; assay: switch fluorescence ratio, 500 uM ATP over buffer (Cy3 cluster intensity, sum of 5 cycles each) (fold (ratio)); higher = stronger signal-on switching upon ATP binding; sequences stand for … in TCGTCGGCAGCGTCAGATGTGTATAAGAGACAGTTTTTTTTTTTTTTTTTTTTTTTTT…TC; settings: aptamer strand: ATP DNA aptamer (quencher-CACCTGGGGGAGTATTGCGGAGGAAGG + anchor), 100 nM annealed; ATP concentration: 500 uM
Method in brief: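 The fluorescence ratio divides summed target-cycle Cy3 intensity by summed buffer-cycle Cy3 intensity for each cluster and is averaged per switch-domain sequence. Cy3-labelled switching-strand clusters on a modified Illumina MiSeq flow-cell were annealed to 100 nM quencher-labelled ATP aptamer, then imaged in selection buffer and again after 15 min with 500 uM ATP at 22 °C. Five such cycles were run, with NaOH stripping and re-annealing between them, and clusters outside 100-1000 RFU were excluded.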
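Note: ATP exposure 15 min at 22 °C before imaging.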

ATGGATTTGT and TGTAATCAAA are within error of each other in switch fluorescence ratio: 1.01 ± 0.021 for the first, 1 ± 0.022 for the second.

TCCTCTTAAG and ATAAGAGTCT are within error of each other in switch fluorescence ratio: 1.09 ± 0.03 for the first, 1.03 ± 0.094 for the second.

AGTTAGTAGT and AGGATGGACG are within error of each other in switch fluorescence ratio: 0.981 ± 0.021 for the first, 1.02 ± 0.064 for the second.

First: TGCTTTTTCA
Second: ACGCTTACTA
The switch fluorescence ratio of the first is lower: 0.9895 ± 0.0042 for the first, 1.44 ± 0.054 for the second.

AACGTTTAGG and TTTGTTGGCT are within error of each other in switch fluorescence ratio: 1.015 ± 0.0099 for the first, 0.972 ± 0.058 for the second.

TTAGCTGTTT and GCTCGAACGA are the same in switch fluorescence ratio: 0.995 ± 0.035 for the first, 0.995 ± 0.013 for the second.

CCTGGTGACG and CGGGCAGGTT are within error of each other in switch fluorescence ratio: 1.035 ± 0.002 for the first, 1.11 ± 0.18 for the second.

Going from ATCGGAATAA to AATACGGTAT, the switch fluorescence ratio falls from 1.4 ± 0.025 to 1.05 ± 0.05.

ATGTGGTCAT and AATCAAACAT are within error of each other in switch fluorescence ratio: 1.008 ± 0.0065 for the first, 1.03 ± 0.018 for the second.

GGCCCCGGCG and TTATAGATGT are within error of each other in switch fluorescence ratio: 1 ± 0.015 for the first, 0.992 ± 0.027 for the second.

CGCTAGATTT and CGGAAAATTA are within error of each other in switch fluorescence ratio: 0.996 ± 0.031 for the first, 1.015 ± 0.0067 for the second.

CCAATAAGGG and TAGGTATGGC are within error of each other in switch fluorescence ratio: 0.994 ± 0.048 for the first, 0.976 ± 0.012 for the second.

GGTTTCCTGT and CTGGTTTTCG are within error of each other in switch fluorescence ratio: 1.01 ± 0.043 for the first, 1 ± 0.021 for the second.

GTGTCATTTA and TGCCAATGGG are within error of each other in switch fluorescence ratio: 0.99 ± 0.035 for the first, 1 ± 0.038 for the second.

AGGGAGGGGA and GGACGCGTGG are within error of each other in switch fluorescence ratio: 1.03 ± 0.061 for the first, 1.01 ± 0.018 for the second.

TTTGTAAAGT and TGTTGGGGTT are within error of each other in switch fluorescence ratio: 0.976 ± 0.019 for the first, 1.01 ± 0.018 for the second.

TAGTTGTTTA and GGGGTAGAAA are within error of each other in switch fluorescence ratio: 0.985 ± 0.046 for the first, 0.969 ± 0.013 for the second.

TTTCACTTGG and GTTCTGGGGT are within error of each other in switch fluorescence ratio: 1.03 ± 0.027 for the first, 1 ± 0.016 for the second.

TGAAAATCTT and ATCCTTGGTC are within error of each other in switch fluorescence ratio: 1.18 ± 0.25 for the first, 1.01 ± 0.023 for the second.

GTGGAATTTT and GTTCCTATGA are the same in switch fluorescence ratio: 1.01 ± 0.0057 for the first, 1.01 ± 0.043 for the second.

First: CGGCATTGGG
Second: GGGGTAGCTG
The switch fluorescence ratio of the first is higher: 1.02 ± 0.04 for the first, 0.962 ± 0.012 for the second.

GATTTGAGGG and TTTGAAAGGC are within error of each other in switch fluorescence ratio: 0.973 ± 0.032 for the first, 1.76 ± 1.1 for the second.

TTGGTTGAGA and CGGTTGTCGG are within error of each other in switch fluorescence ratio: 0.9939 ± 0.0071 for the first, 0.997 ± 0.013 for the second.

TTTGTAAGGC and TTGAAGCTGG are within error of each other in switch fluorescence ratio: 1.08 ± 0.13 for the first, 0.9746 ± 0.0088 for the second.

First: GATACATGTG
Second: AGAAGAGTTT
The switch fluorescence ratio of the first is higher: 1.048 ± 0.0086 for the first, 0.95 ± 0.018 for the second.

TGAGCACCGT and TTTAGAAGGA are within error of each other in switch fluorescence ratio: 1 ± 0.017 for the first, 0.9796 ± 0.0067 for the second.

Compared with GCGATACGCA, AAGAAAATAC is lower in switch fluorescence ratio: 1.07 ± 0.041 for the first, 1 ± 0.024 for the second.

TTTCCGGTTT and AGTTTGCTTG are within error of each other in switch fluorescence ratio: 1.6 ± 1.1 for the first, 0.993 ± 0.025 for the second.

GCAGATTTGG and GTGTTTTTTT are within error of each other in switch fluorescence ratio: 0.978 ± 0.026 for the first, 0.991 ± 0.023 for the second.

CAGGGATGGA and AGGCTTGGGC are within error of each other in switch fluorescence ratio: 0.981 ± 0.013 for the first, 0.971 ± 0.012 for the second.

TGTGCTATTG and GAAGGGGAAA are within error of each other in switch fluorescence ratio: 0.983 ± 0.058 for the first, 1 ± 0.045 for the second.

Compared with TTAAAAGAGA, AATTAATCCA is lower in switch fluorescence ratio: 1.04 ± 0.0028 for the first, 0.997 ± 0.017 for the second.

GGAAAAGAGC and GATATTTGGT are within error of each other in switch fluorescence ratio: 0.991 ± 0.049 for the first, 0.989 ± 0.048 for the second.

CCGTTAGAGG and TAGAATGGC are the same in switch fluorescence ratio: 1.01 ± 0.038 for the first, 1.01 ± 0.054 for the second.

Compared with GCAGTGGGTG, GAGAGCTATA is higher in switch fluorescence ratio: 0.998 ± 0.012 for the first, 1.07 ± 0.044 for the second.

AGTGTGAAGG and TTAGCTGGTG are within error of each other in switch fluorescence ratio: 1.003 ± 0.0099 for the first, 1.07 ± 0.067 for the second.

GGGGCGTGAG and CCATGGGGGG are within error of each other in switch fluorescence ratio: 0.998 ± 0.034 for the first, 1.11 ± 0.18 for the second.

AAATATAAGC and AAAGCGCGCT are within error of each other in switch fluorescence ratio: 1.03 ± 0.044 for the first, 1 ± 0.07 for the second.

AGAATATGTT and TTTGTTGAC are within error of each other in switch fluorescence ratio: 0.983 ± 0.014 for the first, 0.998 ± 0.024 for the second.

First: ATATCCCAGG
Second: TTTTATTGCG
The switch fluorescence ratio of the first is higher: 4.21 ± 0.64 for the first, 0.995 ± 0.011 for the second.

GCATGATATG and CTTGTCATGA are within error of each other in switch fluorescence ratio: 1.01 ± 0.0088 for the first, 1.02 ± 0.017 for the second.

AGGAGTGGAG and TTTCTGTTCG are within error of each other in switch fluorescence ratio: 0.996 ± 0.013 for the first, 0.989 ± 0.024 for the second.

AGCTAGGGTC and TACATGTGCT are within error of each other in switch fluorescence ratio: 1.05 ± 0.049 for the first, 0.996 ± 0.035 for the second.

GGCTTAGGGC and TGGATCTTAT are within error of each other in switch fluorescence ratio: 1.02 ± 0.027 for the first, 1.01 ± 0.034 for the second.

TTAGTCAGGA and ATAATATGAG are within error of each other in switch fluorescence ratio: 1.04 ± 0.057 for the first, 0.993 ± 0.056 for the second.

TTCTAGGCGC and TTTTAATAGT are within error of each other in switch fluorescence ratio: 0.9972 ± 0.0073 for the first, 1.01 ± 0.018 for the second.

TCGTTGTTTT and CTAAAGGGGG are within error of each other in switch fluorescence ratio: 1.0216 ± 0.00093 for the first, 0.998 ± 0.029 for the second.

GTTTGTAAGC and TGACCCTTTT are within error of each other in switch fluorescence ratio: 1.03 ± 0.01 for the first, 1 ± 0.077 for the second.

TTGTGCTGGG and GCGTAAGACC are within error of each other in switch fluorescence ratio: 0.998 ± 0.022 for the first, 1.07 ± 0.06 for the second.

TTTGGGTTTT and AACCAGGACT are within error of each other in switch fluorescence ratio: 1.01 ± 0.054 for the first, 1.02 ± 0.013 for the second.
